From US20140371148A1 (AMYLIN PHARMACEUTICALS, published 2014) come the findings set out here.

Starred links: 1 amine or outer side, 2 acyl side, 3 side chain; linkers in the order of their positions; H or OH if unused. Groups on a side chain read outwards from the residue. No end group written: not given here. 2‑(S)‑cyano pyrrolidyl = 2-(S)-cyano pyrrolidyl group; γGlu = O=C(O)[C@H](CCC(=O)[*:2])N[*:1]; AEEA = NCCOCCOCC(=O)O

One test addresses T1, endogenously expressed GLP-1 receptor of thyroid c-cell carcinoma line 6-23 (UniProt P32301 22-463).
T1 sequence (looked up): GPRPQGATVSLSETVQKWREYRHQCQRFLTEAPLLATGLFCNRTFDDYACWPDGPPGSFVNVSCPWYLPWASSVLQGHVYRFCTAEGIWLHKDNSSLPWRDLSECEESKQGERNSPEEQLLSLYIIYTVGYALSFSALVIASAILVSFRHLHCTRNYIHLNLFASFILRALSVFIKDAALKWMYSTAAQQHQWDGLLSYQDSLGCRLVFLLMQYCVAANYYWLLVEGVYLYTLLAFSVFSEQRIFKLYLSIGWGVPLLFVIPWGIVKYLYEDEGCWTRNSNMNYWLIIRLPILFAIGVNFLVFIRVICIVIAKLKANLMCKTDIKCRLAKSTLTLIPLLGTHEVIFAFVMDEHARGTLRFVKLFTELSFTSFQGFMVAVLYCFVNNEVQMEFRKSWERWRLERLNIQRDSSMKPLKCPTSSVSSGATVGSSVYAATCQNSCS
The test is described as follows: cell-based or functional assay.
Regarding HAEGTFTSDVSSYLEGQAAKEFIAWLVKGRG (lisinopril joined at the C-terminus through linker type C9 of FIG. 2) [5547], the “GLP Cyclase EC50” value came out at 0.4 nM.

Another test addresses Recombinant DPP-IV. Put plainly: cell-based or functional assay.
As to YAEGTFISDYSIAMDKIHQQDFVNWLLAQK (C-terminus extended with Ado-Lys-N-ε-(2-(S)-cyano pyrrolidyl)) [GIP(1-30)-Ado-Lys-N-ε-(2-(S)-cyano pyrrolidyl)], the “DPP-IV IC50” value worked out at 98 nM.

Regarding YAEGTFISDYSIAMDKIHQQDFVNWLLAQK([AEEA-γGlu-2‑(S)‑cyano pyrrolidyl]) [Lys^30 N-ε-(Ado-(γ-L-Glu-2-(S)-cyano pyrrolidyl)) GIP(1-30)], the “DPP-IV IC50” value worked out at 49 nM.

As for YAEGTFISDYSIALDKIHQQDFVNWLLAQK-{AEEA-Lys(N-ε-(2-(S)-cyano pyrrolidyl))} [[Leu^14] GIP(1-30)-Ado-Lys-N-ε-(2-(S)-cyano pyrrolidyl)], the “DPP-IV IC50” value was found to be 109 nM.

Turning to YAEGTFISDYSIAMDKIHQQDFVNWLLAQK (N-terminus acylated with γ-L-Glu-(2-(S)-cyano pyrrolidyl)-Ado-Ado) [N-(γ-L-Glu-2-(S)-cyano pyrrolidyl)-Ado-Ado) GIP(1-30)], the “DPP-IV IC50” value was determined as 64 nM.

As for YAEGTFISDYSIAMDKIHQQDFVNWLLAQK (C-terminus extended with Ado-Ado-Lys-N-ε-(2-(S)-cyano pyrrolidyl)) [GIP(1-30)-Ado-Ado-Lys-N-ε-(2-(S)-cyano pyrrolidyl)], the “DPP-IV IC50” value was determined as 114 nM.
